Experimental findings from patent publication US20230060095A1 (Regeneron, published 2023) are described below.

Substitutions are numbered along the chain they refer to.

T1: peptide on HLA-A*02:01 (human)
T1 peptide: SLLMWITQC

T2: PRAME peptide on HLA-A*02:01 (human)
T2 peptide: SLLQHLIGL

B1: PN42840 (TCR, V domains shown)
V domain 1: TQLLEQSPQFLSIQEGENLTVYCNSSSVFSSLQWYRQEPGEGPVLLVTVVTGGEVKKLKRLTFQFGDARKDSSLHITAAQPGDTGLYLCAEGGGSQGNLIFGKGTKLSVKP
V domain 2: DAGVTQSPTHLIKTRGQQVTLRCSPKSGHDTVSWYQQALGQGPQFIFQYYEEEERQRGNFPDRFSGHQFPNYSSELNVNALLLGDSALYLCASSWTDYGYTFGSGTRLTVV
B2: PN42774 (TCR, V domains shown)
V domain 1: QKEVEQNSGPLSVPEGAIASLNCTYSDRGSQSFFWYRQYSGKSPELIMSIYSNGDKEDGRFTAQLNKASQYVSLLIRDSQPSDSATYLCAVNRGTDKLIFGTGTRLQVFP
V domain 2: B1 V domain 2
B3: PN42795 (TCR, V domains shown)
V domain 1: RKEVEQDPGPFNVPEGATVAFNCTYSNSASQSFFWYRQDCRKEPKLLMSVYSSGNEDGRFTAQLNRASQYISLLIRDSKLSDSATYLCVVNGGSQGNLIFGKGTKLSVKP
V domain 2: B1 V domain 2 with W95V, T96G
B4: PN42561 (TCR, V domains shown)
V domain 1: DAKTTQPNSMESNEEEPVHLPCNHSTISGTDYIHWYRQLPSQGPEYVIHGLTSNVNNRMASLAIAEDRKSSTLILHRATLRDAAVYYCILRDGTGNQFYFGTGTSLTVIP
V domain 2: EAQVTQNPRYLITVTGKKLTVTCSQNMNHEYMSWYRQDPGLGLRQIYYSMNVEVTDKGDVPEGYKVSRKEKRNFPLILESPSPNQTSLYFCASSLWTGGGYTFGSGTRLTVV
B5: PN42762 (TCR, V domains shown)
V domain 1: DAKTTQPNSMESNEEEPVHLPCNHSTISGTDYIHWYRQLPSQGPEYVIHGLTSNVNNRMASLAIAEDRKSSTLILHRATLRDAAVYYCILNTGTASKLTFGTGTRLQVTL
V domain 2: B4 V domain 2 with W96S, T97S, G98N, G99T, G100E, Y101A, T102F, S105Q
B6: PN42707 (TCR, V domains shown)
V domain 1: GESVGLHLPTLSVQEGDNSIINCAYSNSASDYFIWYKQESGKGPQFIIDIRSNMDKRQGQRVTVLLNKTVKHLSLQIAATQPGDSAVYFCAENKRDNYGQNFVFGPGTRLSVLP
V domain 2: B4 V domain 2 with L95F, T97V, G98N, G99T, G100E, Y101A, T102F, S105Q
B7: PN42746 (TCR, V domains shown)
V domain 1: B6 V domain 1 with K94R, R95Q
V domain 2: B4 V domain 2 with T97V, G98N, G99T, G100E, Y101A, T102F, S105Q
B8: PN42712 (TCR, V domains shown)
V domain 1: GIQVEQSPPDLILQEGANSTLRCNFSDSVNNLQWFHQNPWGQLINLFYIPSGTKQNGRLSATTVATERYSLLYISSSQTTDSGVYFCAVGSSNDYKLSFGAGTTVTVRA
V domain 2: EAQVTQNPRYLITVTGKKLTVTCSQNMNHEYMSWYRQDPGLGLRQIYYSMNVEVTDKGDVPEGYKVSRKEKRNFPLILESPSPNQTSLYFCASSPGTGGFSPLHFGNGTRLTVT
B9: PN42711 (TCR, V domains shown)
V domain 1: B8 V domain 1 with A17V, Q78R, D94G
V domain 2: B8 V domain 2
B10: PN42780 (TCR, V domains shown)
V domain 1: TQLLEQSPQFLSIQEGENLTVYCNSSSVFSSLQWYRQEPGEGPVLLVTVVTGGEVKKLKRLTFQFGDARKDSSLHITAAQPGDTGLYLCAGGTSGTYKYIFGTGTRLKVLA
V domain 2: EAQVTQNPRYLITVTGKKLTVTCSQNMNHEYMSWYRQDPGLGLRQIYYSMNVEVTDKGDVPEGYKVSRKEKRNFPLILESPSPNQTSLYFCASSPGTPNYGYTFGSGTRLTVV
B11: PN42706 (TCR, V domains shown)
V domain 1: GIQVEQSPPDLILQEGANSTLRCNFSDSVNNLQWFHQNPWGQLINLFYIPSGTKQNGRLSATTVATERYSLLYISSSQTTDSGVYFCAVEASGTYKYIFGTGTRLKVLA
V domain 2: B10 V domain 2 with P95W, P98G, N99G
B12: PN42442 (TCR, V domains shown)
V domain 1: B10 V domain 1
V domain 2: B10 V domain 2 with P98A
B13: PN42562 (TCR, V domains shown)
V domain 1: B10 V domain 1 with T93P
V domain 2: B10 V domain 2

The first assay addresses HLA-A2/PRAME (425-433) on HLA-A2*01 HEK293T cells pulsed with PRAME 425-433 peptide (human). Briefly: cell-based or functional assay.
In the case of B1, the “EC50 (µM) of peptide, AP1 luciferase reporter in Jurkat cells expressing the TCR” value (“EC50 (µM) of peptide” below) amounted to 0.0309 µM.
As for B2, the “EC50 (µM) of peptide” value worked out at 0.876 µM.
With B3, the “EC50 (µM) of peptide” value was determined as 0.245 µM.
Take B4: the “EC50 (µM) of peptide” value was determined as 0.0137 µM.
On the same count and under the same terms, in the case of B5 it was 115 µM.
For B6, the “EC50 (µM) of peptide” value turned out to be 0.0118 µM.
Still for that read-out and setting: the same measure for B7: 0.046 µM; for B8: 0.0133 µM; for B9: 0.0569 µM.
Still for that read-out and setting: the same measure for B10: 1.25 µM; for B11: 0.727 µM; for B12: 0.232 µM.
B13: the “EC50 (µM) of peptide” value came out at 0.0281 µM.

Another assay has as its target T3, soluble HLA:A2:PRAME (425-433) tetramer (human).
T3 construct: Commercial tetramer (MBL International); construct limits, biotin tag and streptavidin/fluorophore not described; also called PRAME/HLA tetramer reagent; PRAME (425-433)/HLA-A2
Briefly: flow cytometry, soluble pMHC tetramer on CHO cells expressing the TCR.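 Also: CHO cells transfected with vectors encoding full-length paired TCR alpha and beta chains, stained with PRAME/HLA tetramer and read by flow cytometry, each value reflects one listed TCR.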
With B1, the “Cell Frequency ≥1000 MFI, ≥1% (% tetramer positive cells in the Ag+ gate)” value came to 52.5%.
For the molecule B2, the “Cell Frequency ≥1000 MFI, ≥1% (% tetramer positive cells in the Ag+ gate)” value is 91.6%.
Turning to B3, the “Cell Frequency ≥1000 MFI, ≥1% (% tetramer positive cells in the Ag+ gate)” value stood at 49.4%.
Turning to B4, the “Cell Frequency ≥1000 MFI, ≥1% (% tetramer positive cells in the Ag+ gate)” value was determined as 80.2%.
Same read-out and setting: in the case of B5 it was 4.95%; in that of B6, 7.28%; in that of B7, 4.39%.
Same read-out and setting: the same measure for B8: 80.7%; for B9: 4.26%; for B10: 4.89%.
Turning to B11, the “Cell Frequency ≥1000 MFI, ≥1% (% tetramer positive cells in the Ag+ gate)” value turned out to be 24.7%.
With B12, the “Cell Frequency ≥1000 MFI, ≥1% (% tetramer positive cells in the Ag+ gate)” value was 61.3%.
Still for that read-out and setting: in the case of B13 it was 92%.

Another assay deals with T1, peptide on HLA-A*02:01. Briefly: activation reporter or marker.
Take B1: the binding result is “no recognition”.
Consider B2, for which the binding result is “no recognition”.
Take B3: the binding result is listed as “no recognition”.
Consider B4, for which the binding result is listed as “no recognition”.
Same read-out and setting: in the case of B5 it was “no recognition”; in that of B6, “no recognition”; in that of B7, “no recognition”.
Regarding B8, the binding result is “no recognition”.
For the molecule B9, the binding result was “no recognition”.
The same measure, in the same setting: in the case of B10 it was “no recognition”; in that of B11, “no recognition”.
On to B12, for which the binding result was “no recognition”.
On the same count and under the same terms, the same measure for B13: “no recognition”.

The target in another assay is T2, PRAME peptide on HLA-A*02:01. Briefly: multimer staining.
For B1, the binding result was “recognises”.
For the molecule B2, the binding result is listed as “recognises”.
Same read-out and setting: the same measure for B3: “recognises”.
Turning to B4, the binding result is “recognises”.
As to B5, the binding result is listed as “recognises”.
For B6, the binding result was “recognises”.
In the case of B7, the binding result was “recognises”.
Turning to B8, the binding result is on record as “recognises”.
The same measure, in the same setting: in the case of B9 it was “recognises”; in that of B10, “recognises”; in that of B11, “recognises”.
As for B12, the binding result is listed as “recognises”.
On the same count and under the same terms, in the case of B13 it was “recognises”.
